Target: the molecule itself
Experiment: non-reducing and reducing SDS-PAGE; purified protein run non-reduced and reduced (10 mM dithiothreitol) on a 4-20% Bis-Tris gel, Coomassie-type staining

B1: Pf3D7_1143700 fragment 1-100 expressed in Drosophila melanogaster S2 cells (TBC1^DM) (domain or fragment, Plasmodium falciparum 3D7, UniProt Q8IHS8 1-100, looked up)
chain: MKVKIGSFENFLERLNNIKEEDIIINDENTEEMFSSFLITFYKENEGRYTIQEQEYINNLLNILINKIRDNKNGRNFFSNLLCIHFKSITPYFINVKLKD
notes: Conserved Plasmodium protein, unknown function, PF3D7_1143700, Plasmodium falciparum 3D7 genome (PlasmoDB), residues 1-100; codon-optimised synthetic gene; secreted; the dimer is held by a disulphide bond
In the case of B1, the “stoichiometry N” value is reported as 2.
